Measured values reported in IntAct's records for PubMed 22247544.

B1: Corticotropin-releasing factor receptor 1 (Homo sapiens), P34998 (parent)
chain: MGGHPQLRLVKALLLLGLNPVSASLQDQHCESLSLASNISGLQCNASVDLIGTCWPRSPAGQLVVRPCPAFFYGVRYNTTNNGYRECLANGSWAARVNYSECQEILNEEKKSKVHYHVAVIINYLGHCISLVALLVAFVLFLRLRSIRCLRNIIHWNLISAFILRNATWFVVQLTMSPEVHQSNVGWCRLVTAAYNYFHVTNFFWMFGEGCYLHTAIVLTYSTDRLRKWMFICIGWGVPFPIIVAWAIGKLYYDNEKCWFGKRPGVYTDYIYQGPMILVLLINFIFLFNIVRILMTKLRASTTSETIQYRKAVKATLVLLPLLGITYMLFFVNPGEDEVSRVVFIYFNSFLESFQGFFVSVFYCFLNSEVRSAIRKRWHRWQDKHSIRARVARAMSIPTSPTRVSFHSIKQSTAV

Variants of: B1
Details: with GNAI2, P04899-1
GNAI2, P04899-1, sequence (P04899 whole entry): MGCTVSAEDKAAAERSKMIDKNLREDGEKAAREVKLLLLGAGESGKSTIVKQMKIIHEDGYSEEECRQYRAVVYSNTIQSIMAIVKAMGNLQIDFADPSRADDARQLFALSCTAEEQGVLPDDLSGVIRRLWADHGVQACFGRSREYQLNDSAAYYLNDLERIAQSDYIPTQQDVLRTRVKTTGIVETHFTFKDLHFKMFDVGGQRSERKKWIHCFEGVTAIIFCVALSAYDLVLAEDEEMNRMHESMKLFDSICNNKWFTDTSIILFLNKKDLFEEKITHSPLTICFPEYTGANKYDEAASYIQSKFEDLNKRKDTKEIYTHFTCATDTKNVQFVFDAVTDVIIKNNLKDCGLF

Variant | effect of a mutation on the interaction
K314A | decreasing interaction strength
R292A | decreasing interaction strength
